Laboratory results from article PMC9365700, “Architecture and self-assembly of the jumbo bacteriophage nuclear shell” (Nature, 2022).
“And” between values parts separate entries of the source, which are not always exact repeats. Equal values may be shown once.

Target: the molecule itself
Experiment: cryo-EM structure; single-particle analysis of the defined assemblies from SEC with localized reconstruction (O, C4, C1); 201phi2-1 about 4 µM monomer, Goslar about 33 µM monomer

B1: 201phi2-1 chimallin (gp105), full length, recombinant (natural protein, bacteriophage 201phi2-1, UniProt B3FIW8 1-631, looked up)
chain: MIRDTATNTTQTQAAPQQAPAQQFTQAPQEKPMQSTQSQPTPSYAGTGGINSQFTRSGNVQGGDARASEALTVFTRLKEQAVAQQDLADDFSILRFDRDQHQVGWSSLVIAKQISLNGQPVIAVRPLILPNNSIELPKRKTNIVNGMQTDVIESDIDVGTVFSAQYFNRLSTYVQNTLGKPGAKVVLAGPFPIPADLVLKDSELQLRNLLIKSVNACDDILALHSGERPFTIAGLKGQQGETLAAKVDIRTQPLHDTVGNPIRADIVVTTQRVRRNGQQENEFYETDVKLNQVAMFTNLERTPQAQAQTLFPNQQQVATPAPWVASVVITDVRNADGIQANTPEMYWFALSNAFRSTHGHAWARPFLPMTGVAKDMKDIGALGWMSALRNRIDTKAANFDDAQFGQLMLSQVQPNPVFQIDLNRMGETAQMDSLQLDAAGGPNAQKAAATIIRQINNLGGGGFERFFDHTTQPILERTGQVIDLGNWFDGDEKRDRRDLDNLAALNAAEGNENEFWGFYGAQLNPNLHPDLRNRQSRNYDRQYLGSTVTYTGKAERCTYNAKFIEALDRYLAEAGLQITMDNTSVLNSGQRFMGNSVIGNNMVSGQAQVHSAYAGTQGFNTQYQTGPSSFY
notes: Cloned in UC Berkeley Macrolab vector 2-BT (Addgene #29666) with a TEV-cleavable His6 tag; tag removed before SEC; also called ChmA; FL; not shown: His6, N-terminal, cleaved
  stoichiometry N: 24 protomers and 40 protomers

B2: Goslar chimallin (gp189), full length, recombinant (natural protein, bacteriophage Goslar, UniProt A0A482GDX1 1-631, looked up)
chain: MGLDVRNNGNDNVEIRAAETRTAQRADEALETAADFAGQPKVTHTMRTINRTLSRRISRNTGSEQVLNLRRLMEKYLEDTRFKDDFIFVAVDPNQYSVPYPTLVVMSGAKVGDHNHFFGYVLPLVAGLAPLPRREEQGPHGNILVPRTWVDNLNGTFINEVMAAMYAAIGGKSNGTARIAGLAVVTNEITAESAHLATTLLSAADNAIQTAIEIRLGDKLGLPQFNLGMMASDQPISSVQYNTSGMQDSDIVGNPVRSDITVTISNRIRQAMSDYDSQQRLVATTGYIDLTYSPQNPTFNQGPVLVNGYPVPPTVQYQPRYVMTSAYPLELDAFTPNTFVLGLIGTIATLNSGMAWAQSLISNAARGIGPHNPGALAMVLDPEVTAPLDLSTQTNEQIYKFLQQVLYPSLLISIDVPEEGEYSWLLRMIPAAEKIYTGKVEGEVREISEGYKALYRAFDDVTLGCFSKKYQYGLPLVYATGNRIPLGHYNHQDGHRHDIRDMDDLYMMNITNPDTVEAWEDSFDRTDMTMSQRVVARHEIIDRVLSGSWEQTGWAMRYDFDPLALQALIEAAADAGFTIRPENIQHLAGTAVRGNMAARARGLGNISGNIYARSDRPNVGVNNMGGAFNLF
notes: Chimallin (gp189) of E. coli jumbo bacteriophage Goslar, 631 amino acids, NCBI YP_009820873.1; Cloned in UC Berkeley Macrolab vector 2-BT (Addgene #29666) with a TEV-cleavable His6 tag; tag removed before SEC; not shown: His6, N-terminal, cleaved
  stoichiometry N: 24 protomers
